This is an account of results in publication PMC11109203 (Nature Communications, 2024).

To fix the notation:
B7: Clr3 (untagged) (enzyme, S. pombe, UniProt P56523 1-687, looked up)
chain: MLASNSDGASTSVKPSDDAVNTVTPWSILLTNNKPMSGSENTLNNESHEMSQILKKSGLCYDPRMRFHATLSEVDDHPEDPRRVLRVFEAIKKAGYVSNVPSPSDVFLRIPAREATLEELLQVHSQEMYDRVTNTEKMSHEDLANLEKISDSLYYNNESAFCARLACGSAIETCTAVVTGQVKNAFAVVRPPGHHAEPHKPGGFCLFNNVSVTARSMLQRFPDKIKRVLIVDWDIHHGNGTQMAFYDDPNVLYVSLHRYENGRFYPGTNYGCAENCGEGPGLGRTVNIPWSCAGMGDGDYIYAFQRVVMPVAYEFDPDLVIVSCGFDAAAGDHIGQFLLTPAAYAHMTQMLMGLADGKVFISLEGGYNLDSISTSALAVAQSLLGIPPGRLHTTYACPQAVATINHVTKIQSQYWRCMRPKHFDANPKDAHVDRLHDVIRTYQAKKLFEDWKITNMPILRDSVSNVFNNQVLCSSNFFQKDNLLVIVHESPRVLGNGTSETNVLNLNDSLLVDPVSLYVEWAMQQDWGLIDINIPEVVTDGENAPVDILSEVKELCLYVWDNYVELSISKNIFFIGGGKAVHGLVNLASSRNVSDRVKCMVNFLGTEPLVGLKTASEEDLPTWYYRHSLVFVSSSNECWKKAKRAKRRYGRLMQSEHTETSDMMEQHYRAVTQYLLHLLQKARPTSQ
notes: Clr3, histone deacetylase, S. pombe; source: E. coli Rosetta, purified (Ni-NTA, Ulp1 digestion, Superdex); not shown: 6*His-Sumo, N-terminal, cleaved

Conditions in all cases: both partners purified
Test [1] concerns the target T1, S. pombe H2AB fusion protein (H2B_(32-126)-H2A_(15-108)) (S. pombe, UniProt P04913 32-126; P04909 15-108).
T1 construct: histone H2A, S. pombe, residues 15-108; No linker between the two parts is told; Modified pCDF-Duet vector, His tag followed by a 3C site; also called single-chain fusion of H2A and H2B; H2A-H2B fusion protein; source: E. coli Rosetta, purified (3C digestion, Superdex); not shown: 6*His, N-terminal, cleaved
Nature of the test: ITC; MicroCal ITC200, 20 °C; 25 mM Tris-HCl pH 8.0, 400 mM NaCl, 2 mM DTT; Sad1 (500 μM) titrated into H2AB (50 μM).

The test “Clr3 (untagged)” concerns the target B7. Nature of the test: pull-down; GST-Sad1_(1-169) on glutathione beads with Sumo-Sir2 or untagged Clr3, in the absence of H2AB; same buffer as the histone pull-downs.
The target in the next test is T2, FITC labeled Clr3 (S. pombe, UniProt P56523 1-687, FITC label).
T2 construct: Clr3, histone deacetylase, S. pombe; source: E. coli Rosetta, purified, labeled with the EZLabel Protein FITC Labeling Kit
T2 sequence (looked up): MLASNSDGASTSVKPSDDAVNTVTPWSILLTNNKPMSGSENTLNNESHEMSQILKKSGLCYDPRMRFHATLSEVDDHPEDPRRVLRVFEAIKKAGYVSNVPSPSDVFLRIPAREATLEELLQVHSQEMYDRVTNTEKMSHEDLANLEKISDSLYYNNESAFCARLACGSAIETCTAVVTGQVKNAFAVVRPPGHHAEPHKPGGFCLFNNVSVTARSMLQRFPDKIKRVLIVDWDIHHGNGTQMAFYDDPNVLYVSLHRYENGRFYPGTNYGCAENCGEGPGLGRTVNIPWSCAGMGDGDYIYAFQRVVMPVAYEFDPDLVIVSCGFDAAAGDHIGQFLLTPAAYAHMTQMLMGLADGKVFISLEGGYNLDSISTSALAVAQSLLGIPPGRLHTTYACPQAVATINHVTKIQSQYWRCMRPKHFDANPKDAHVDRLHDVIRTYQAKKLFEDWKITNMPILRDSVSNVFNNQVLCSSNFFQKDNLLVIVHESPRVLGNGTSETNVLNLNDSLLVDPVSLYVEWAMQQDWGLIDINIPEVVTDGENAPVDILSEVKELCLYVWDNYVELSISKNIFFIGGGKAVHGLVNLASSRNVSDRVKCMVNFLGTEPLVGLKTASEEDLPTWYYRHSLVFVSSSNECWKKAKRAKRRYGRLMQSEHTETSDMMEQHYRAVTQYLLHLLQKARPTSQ
Kind of test: MST; Monolith NT.115; 25 mM HEPES pH 7.5, 150 mM NaCl, 2 mM DTT; 20 nM FITC labeled Clr3; ligands (500 μM Sad1_(1-169) or 250 μM Sad1_(1-169)-H2AB complex) diluted by 12 gradients; medium MST power, 80% LED.

For test [2], the target named is T3, GST-Sad1_(1-169) with H2AB (Sad1-H2AB complex of the pull-downs) (S. pombe, UniProt Q09825 1-169; P04913 32-126; P04909 15-108).
T3 construct: histone H2A, S. pombe, residues 15-108; m1 with m5; source: E. coli Rosetta, purified proteins mixed; not shown: GST, N-terminal, kept; 6*His, N-terminal, cleaved
Nature of the test: pull-down; GST-Sad1_(1-169) on glutathione beads with silencing factors in the presence of H2AB; same buffer as the histone pull-downs.

T1 sequence (P04913 other isoform, or with tags, fused parts or gaps): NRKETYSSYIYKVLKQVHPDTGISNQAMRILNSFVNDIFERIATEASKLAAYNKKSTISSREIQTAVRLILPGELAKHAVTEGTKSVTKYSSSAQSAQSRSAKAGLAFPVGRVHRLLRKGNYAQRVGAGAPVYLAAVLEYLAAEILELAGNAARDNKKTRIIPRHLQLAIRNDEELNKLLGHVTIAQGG
T3 sequence (P04913 other isoform, or with tags, fused parts or gaps): as above

B1: Sad1_(60-169) (domain or fragment, S. pombe, UniProt Q09825 60-169, looked up)
chain: ESITPKQRFPAPNFEQAYHSNIRYEQEESDNEEFENVVKNGHEASTNVFYESDGDDEEFVNEEYENSIDEESDDEGYSLNEDTTATNASFRYPMNQRSTRKSQFYSSKFK
notes: source: E. coli Rosetta, purified; not shown: GST, N-terminal, cleaved
In the case of B1, the binding result in test [1] is listed as “binds”.

B2: Sad1_(60-169) with charge-reverse mutations of D114 and E117 (domain or fragment)
chain: ESITPKQRFPAPNFEQAYHSNIRYEQEESDNEEFENVVKNGHEASTNVFYESDGRDERFVNEEYENSIDEESDDEGYSLNEDTTATNASFRYPMNQRSTRKSQFYSSKFK
In the case of B2, the “fold decrease of binding affinity against wild-type Sad1_(60-169)” value in test [1] came out at 5.6 fold.

B3: Sad1_(60-169) F118A (domain or fragment, S. pombe, UniProt Q09825 60-169, looked up)
chain: ESITPKQRFPAPNFEQAYHSNIRYEQEESDNEEFENVVKNGHEASTNVFYESDGDDEEAVNEEYENSIDEESDDEGYSLNEDTTATNASFRYPMNQRSTRKSQFYSSKFK
notes: also called Sad1 F118A; source: E. coli Rosetta, purified; not shown: GST, N-terminal, cleaved
Consider B3, for which, in test [1], the binding result is on record as “binds”.

B4: GST-Sad1_(1-169) (domain or fragment, S. pombe, UniProt Q09825 1-169, looked up)
chain: MFTNTPVGGKRERQNGAHPAWSTLGANSAQIHQNTADLASKMHKLRYTKIRSPPTRVSIESITPKQRFPAPNFEQAYHSNIRYEQEESDNEEFENVVKNGHEASTNVFYESDGDDEEFVNEEYENSIDEESDDEGYSLNEDTTATNASFRYPMNQRSTRKSQFYSSKFK
notes: pGEX-6P-1 vector; source: E. coli Rosetta, purified (glutathione Sepharose 4B, eluted with reduced glutathione, Superdex); not shown: GST, N-terminal, kept
For B4, the binding result with Clr3 (untagged) was “binds”.

B5: Sad1_(1-169) (domain or fragment, S. pombe, UniProt Q09825 1-169, looked up)
chain: MFTNTPVGGKRERQNGAHPAWSTLGANSAQIHQNTADLASKMHKLRYTKIRSPPTRVSIESITPKQRFPAPNFEQAYHSNIRYEQEESDNEEFENVVKNGHEASTNVFYESDGDDEEFVNEEYENSIDEESDDEGYSLNEDTTATNASFRYPMNQRSTRKSQFYSSKFK
notes: Cleavage is told in general for proteins not needed with their tag; used in ITC, SEC and MST; also called Sad1NTD; source: E. coli Rosetta, purified (glutathione Sepharose 4B, 3C digestion on beads, Superdex); not shown: GST, N-terminal, cleaved
Consider B5, for which binding in test [1] was put at a Kd of 9.5 µM. The binding result with FITC labeled Clr3 is “binds”.

B6: Sumo-Sir2 fusion protein (enzyme, S. pombe, UniProt O94640 1-475, looked up)
chain: MASNPLDNNMPTTPVEEKIPVASYSPSSSGSSSGASLLVDIMCGSKETEDEEVDSDEWDKPETENISDLDERSEMVRYLRASGYAKFLEKYLIEEELPVRSILKKLGINLPSALEEFEDIDLLPLLKEVLKREVARRIKLPHFNTFEDVVNLLKKAKNVVVLVGAGISTSLGILDFRSDNGFYARLARHGLSEPSEMFDIHTFRENPEIFYTFARDLLPETNHYSPSHAFIRLLEKKNKLSTLFTQNIDNLEKKTGLSDNKIIQCHGSFATATCIKCKHKVDGSELYEDIRNQRVSYCNECGKPPLKLRRVGQNKKEKHYFSDGDSESSEDDLAQPGIMKPDITFFGEALPDSFFNKVGSGELEETDLLICIGTSLKVAPVSELISVIPPTTPQIYISRTPVRHTQFDVNFLSPYCDWVIVEICKRAGWLNELQALCDLPECHSGSKTRAFETDLDIKFEEPSTYHITSTTNGSC
notes: Sir2, histone deacetylase, S. pombe; The legend says that some untagged Sir2 from self-proteolysis was present; source: E. coli Rosetta, purified (Ni-NTA, eluted with imidazole, Superdex); not shown: 6*His-Sumo, N-terminal, kept
As to B6, the binding result in test [2] is “binds”.

Consider B7, for which the binding result in test [2] was “binds”.
